# Patent US7488592
# T1: GST-CCaaX, P01120
# T1 chain: CCIIS
# T2: GST-Ras2(HV)CCaaX, P01120
# T2 chain: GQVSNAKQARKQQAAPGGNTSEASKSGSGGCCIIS
# T3: GST-Ras2CCaaX, P01120
# T3 chain: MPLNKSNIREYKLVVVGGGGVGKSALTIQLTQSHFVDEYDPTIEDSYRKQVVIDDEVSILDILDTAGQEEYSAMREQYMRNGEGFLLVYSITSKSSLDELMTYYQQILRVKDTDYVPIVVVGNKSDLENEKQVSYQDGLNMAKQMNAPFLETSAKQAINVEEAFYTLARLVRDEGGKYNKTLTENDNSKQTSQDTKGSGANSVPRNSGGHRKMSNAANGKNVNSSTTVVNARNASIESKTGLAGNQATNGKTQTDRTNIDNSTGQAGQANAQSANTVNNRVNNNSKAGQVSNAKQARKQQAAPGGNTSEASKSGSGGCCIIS
# B1: Erf2p/Erf4p complex (GST-Erf4p/FLAG-Erf2p on GSH beads) (protein)
# chain 1: MALVSRRSTRSESTSITKEEHTGEGSLTKLFFRWLVTLEGDQDINDGKGYISLPNVSNYIFFLGGRFRTVKGAKPLWLGVLLAIVCPMVLFSIFEAHKLWHTQNGYKVLVIFFYYFWVITLASFIRTATSDPGVLPRNIHLSQLRNNYQIPQEYYNLITLPTHSSISKDITIKYCPSCRIWRPPRSSHCSTCNVCVMVHDHHCIWVNNCIGKRNYRFFLIFLLGAILSSVILLTNCAIHIARESGGPRDCPVAILLLCYAGLTLWYPAILFTYHIFMAGNQQTTREFLKGIGSKKNPVFHRVVKEENIYNKGSFLKNMGHLMLEPRGPSFVSARKPHEAGDWRFMDLSPAHSFEKIQKI
# chain 2: MCDSHQKEEDNANTSERALFFNYHEFSYSFYEDLGSEDAKPTEHDEDHKLCITHFPNVYAARGSAEFQVTRVVRVPRRFDESRSSLETPQFSTQLPGSEPAAIVGDDGTSFVRCGRYDIGDHVFGCSSVSPLSEYLSAAELAEVVHRVNGFLLREEGEVFGWRNLSGLLLDMLTGGLWSWVLGPLLSRPVFQESLALEQYVAQLNSPGGLLHERGVRLVLPRRSGCLSLDFVVPRPK
# Columns and labels:
# [1] = biological target: H-Ras (N-terminal His6-tagged fusion), P01112
# Chain of H-Ras (N-terminal His6-tagged fusion), P01112 (P01112 whole entry, looked up, the tested form may be a part): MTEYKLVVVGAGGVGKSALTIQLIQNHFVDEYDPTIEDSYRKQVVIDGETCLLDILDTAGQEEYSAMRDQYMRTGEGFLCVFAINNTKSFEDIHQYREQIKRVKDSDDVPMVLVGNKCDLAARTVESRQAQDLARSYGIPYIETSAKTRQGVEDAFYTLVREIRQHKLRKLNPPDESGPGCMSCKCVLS
# GST-CCaaX, P01120 = biological target: T1, GST-CCaaX, P01120
# [2] = biological target: T2, GST-Ras2(HV)CCaaX, P01120
# GST-Ras2CCaaX, P01120 = biological target: T3, GST-Ras2CCaaX, P01120
protein,measurement,setting,value
B1,palmitate transferred (PAT assay),[1],40 vs 2720 pmol palmitate transferred/min/\u00b5mol substrate
same,palmitoylation level relative to Ras2p,[1],"levels much lower (5%) than the proposed natural substrate, Ras2p"
same,palmitate transferred (PAT assay),Myristoylated Gi1,55 vs 2720 pmol palmitate transferred/min/\u00b5mol substrate
same,palmitoylation level relative to yeast Ras2p,Myristoylated Gi1,~5% that of yeast Ras2p
same,in vitro palmitoylation relative to GST-(HV)CCaaX,"GST-CCaaX, P01120",reduced 10-fold compared with GST-(HV)CCaaX
same,acceleration of the spontaneous rate of palmitoylation,[2],~160-fold
same,"palmitate incorporated into the Ras2p substrate (in vitro PAT assay, [3H]palmitoyl-CoA)",[2],0.14 pmol/min
same,palmitate transferred (PAT assay),[2],2720 pmol palmitate transferred/min/\u00b5mol substrate
same,in vitro palmitoylation (PAT assay),"GST-Ras2CCaaX, P01120",palmitoylated GST(HV)CCIIS to levels similar to full-length GST-Ras2CCIIS
